The data set addresses thrombin (biotinylated, immobilized on streptavidin microparticles) (UniProt P00734;P00734 328-363;364-622). Put plainly: microparticle flow cytometry; Thrombin-microparticles incubated with 0.5-200 nM FAM-aptamer, washed with DPBS, flow cytometry; binding buffer, pH and temperature not stated. On the technique in general: Flow cytometry measures light scatter and fluorescence of single cells or particles in a stream.

Kd data for two molecules are collected here from paper PMC12169211.

As a reminder, the Kd is the equilibrium constant for the complex coming apart. Read a low Kd as higher affinity.

B1: hybrid bispecific aptamer without toehold (HBA; 15-mer-Sticky + 29-mer-Sticky) (structured_DNA)
DNA 1: GGTTGGTGTGGTTGGTTTTTGACCCTGCGTACC
DNA 2: AGTCCGTGGTAGGGCAGGTTGGGGTGACTTTTTTGGTACGCAGGTC
In turn, B1 returned a Kd of 4.8 nM.

B2: toehold hybrid bispecific aptamer (THBA; 15-mer-Sticky + 29-mer-Sticky-TH) (structured_DNA)
DNA 1: GGTTGGTGTGGTTGGTTTTTGACCCTGCGTACC
DNA 2: AGTCCGTGGTAGGGCAGGTTGGGGTGACTTTTTTGGTACGCAGGTCCGTTA
Take B2: the Kd was roughly 5.7 nM.
